Values of other authors as cited in PMC9152818.
Like-named read-outs stand apart in the source and are kept apart here.

Assays:
[1] = biological target: spike protein RBD (SARS-CoV-2) (UniProt P0DTC2)
[2] = biological target: spike protein (SARS-CoV-2) (UniProt P0DTC2)
[3] = biological target: spike protein RBD (SARS-CoV-2) (UniProt P0DTC2); remark: listed apart in the source
[4] = biological target: spike protein CendR peptide CendR peptide (SARS-CoV-2) (UniProt P0DTC2)
[5] = biological target: spike protein RBD (SARS-CoV-2) (UniProt P0DTC2); remark: listed apart in the source

In the case of ASGR1 (from UniProt P07306), the Kd [1] is given as 95 nM.

For AXL (from UniProt P30530), the Kd [2] is listed as 1000 nM.

In the case of Kremen1 (from UniProt Q96MU8), the Kd [3] is given as 20 nM.

In the case of Neuropilin-1 (from UniProt O14786), the Kd [4] is listed as 20000 nM.

For “soluble trimeric ACE2 (from UniProt Q9BYF1)”, the Kd [5] is listed as < 1 nM.
